Results published in US20050180952A1, “Methods for intradermal delivery of therapeutics agents” (priority 2003, published 2005).

Assays:
B 16F10 melanoma cells [1] = experiment: Effects of routes of IL-12 administration on mortality of tumor-containing mice; type: in vivo, C57BL/6J mice; conditions: Day 28
Experimental: (§1) C57BL/6J mice (Charles Rivers Labs, Inc) were inoculated SC with 1×10^6 B 16F10 melanoma cells (ATCC) on the upper right flank. One week following tumor inoculation (Day 7), the mice were randomized and treated with 100 ng rmIL-12 (R&D Systems) in 50 μL PBS solution through either ID or SC injections near tumor inoculation site, or an IP injection (n=25/condition). An additional condition of ID controls was run using 50 μL PBS solution alone. ID treatment was administered with a 34G, 1 mm needle using a modified mantoux method. SC and IP doses were given with standard 25G×¾″ needle. Treatment was continued every other day through Day 13 for a total of four doses. Tumor measurements in mm^2 (length×width) were collected on Days 7, 11, 14, 18, 21, 25 and 28. Blood samples were collected on Days 0, 14, 21 and 28 for IL-12 and IFN-gamma analysis. Draining lymph node and spleen tissue samples were collected from five animals in each condition on Days 14 and 24 for FACS analysis of CD49b (NK) cells. Mortality data were collected on 10 pre-selected animals that were not used for blood sampling or FACS analysis from each condition. Mortality was determined through either natural death or euthanasia due to tumor size of greater than 400 mm^2. Statistical data were calculated using a t-Test: Two-Sample Assuming Unequal Variances. See, e.g., Brunda, M., J. Exp. Med., 178: 1223-1230 (1993) and Leonard et al., Blood, 90: 2541-2548 (1997), both of which are incorporated herein by reference.

CD49b (NK) cells = experiment: NK cells count in draining lymph node by FACS analysis; type: in vivo, C57BL/6J mice; conditions: ID delivery vs other conditions
Experimental: C57BL/6J mice (Charles Rivers Labs, Inc) were inoculated SC with 1×10^6 B 16F10 melanoma cells (ATCC) on the upper right flank. One week following tumor inoculation (Day 7), the mice were randomized and treated with 100 ng rmIL-12 (R&D Systems) in 50 μL PBS solution through either ID or SC injections near tumor inoculation site, or an IP injection (n=25/condition). An additional condition of ID controls was run using 50 μL PBS solution alone. ID treatment was administered with a 34G, 1 mm needle using a modified mantoux method. SC and IP doses were given with standard 25G×¾″ needle. Treatment was continued every other day through Day 13 for a total of four doses. […] Mortality was determined through either natural death or euthanasia due to tumor size of greater than 400 mm^2. Statistical data were calculated using a t-Test: Two-Sample Assuming Unequal Variances. […]
The right side superficial inguinal draining lymph node (DLN) and the spleen were excised individually from 5 mice per each treatment group into Petri dishes containing cold HBSS (Invitrogen Life Technologies, Carlsbad, Calif.) for the DLN. […] The washed cells were resuspended in 1 ml of cold FacsFlow buffer and kept on ice in the dark until analyzed by flow cytometry using a FACS Vantage SE. Cell analysis was designed to exclude B cells and quantify CD4+ cells, CD8+ cells, and CD49b+ (NK cells). […]

B 16F10 melanoma cells [2] = experiment: Effects of routes of IL-12 delivery (ID, SC, IP) on tumor growth, 100 ng dose; type: in vivo, C57BL/6J mice
Experimental: as §1

B16F10 melanoma cells = experiment: Effects of site of ID delivery (tumor side vs contralateral side) on antitumor activity of IL-12; type: in vivo, C57BL Mice
Experimental: C57BL Mice were inoculated subcutaneously (SC) with 1 million B16F10 melanoma cells (ATCC, Inc.). Treatment was initiated with IL-12 injections 7 days post-inoculation at 100 ng given as an ID dose on the tumor bearing or contralateral side dose. IL-12 doses were repeated every other day for a total of 4 treatments. As a control, the same volume of complete medium (PBS) was injected ID on the tumor bearing side. True negatives were also run in conjunction for serum and tissue samples (n=15/condition). Weights and tumor size were measured on days 7, 11, 14, 18 and 21. Blood samples were also collected at weekly intervals for IL-12 analysis. Draining lymph node and spleen samples were collected at 14 and 24 days for T cell, B cell and NK cell, and GP100 FACS analysis was performed. Two tumor diameters at right angles were measured with digital calipers, and the average tumor size was plotted with respect to days post inoculation with tumor cells.

B1: IL-12: rmIL-12 (R&D Systems), interleukin-12 cytokine given in PBS solution (protein, UniProt P43431 23-215; P43432 23-335, looked up)
Interleukin-12 subunit alpha: RVIPVSGPARCLSQSRNLLKTTDDMVKTAREKLKHYSCTAEDIDHEDITRDQTSTLKTCLPLELHKNESCLATRETSSTTRGSCLPPQKTSLMMTLCLGSIYEDLKMYQTEFQAINAALQNHNHQQIILDKGMLVAIDELMQSLNHNGETLRQKPPVGEADPYRVKMKLCILLHAFSTRVVTINRVMGYLSSA
Interleukin-12 subunit beta: MWELEKDVYVVEVDWTPDAPGETVNLTCDTPEEDDITWTSDQRHGVIGSGKTLTITVKEFLDAGQYTCHKGGETLSHSHLLLHKKENGIWSTEILKNFKNKTFLKCEAPNYSGRFTCSWLVQRNMDLKFNIKSSSSSPDSRAVTCGMASLSAEKVTLDQRDYEKYSVSCQEDVTCPTAEETLPIELALEARQQNKYENYSTSFFIRDIIKPDPPKNLQMKPLKNSQVEVSWEYPDSWSTPHSYFSLKFFVRIQRKKEKMKETEEGCNQKGAFLVEKTSTEVQCKGGNVCVQAQDRYYNSSCSKWACVPCRVRS
With B1 the “survivability compared to delivery through other routes or control” value (B 16F10 melanoma cells [1]; ID delivery) was “greater than 200%”, the surviving animals (B 16F10 melanoma cells [1]; ID delivery 100 ng) was 7 out of 10 and the surviving animals (B 16F10 melanoma cells [1]; IP delivery 100 ng) was 3 out of 10. For the same molecule, the surviving animals (B 16F10 melanoma cells [1]; SC delivery 100 ng) was 3 out of 10, the “NK cells in DLN” value (CD49b (NK) cells; Day 14 (one day post regimen)) was “increase in NK cells is apparent” and the “NK cells in DLN” value (CD49b (NK) cells; Day 24) was “relative increase above the other conditions”. For the same molecule, the “Mean (tumor measurement, length x width)” value (B 16F10 melanoma cells [2]; Day 18, ID 100 ng) was 62.29 mm^2, the “Mean (tumor measurement, length x width)” value (B 16F10 melanoma cells [2]; Day 18, IP 100 ng) was 158.2458 mm^2 and the “Mean (tumor measurement, length x width)” value (B 16F10 melanoma cells [2]; Day 18, SC 100 ng) was 199.7379 mm^2. For the same molecule, the “Mean (tumor measurement, length x width)” value (B 16F10 melanoma cells [2]; Day 28, ID 100 ng) was 127.2 mm^2, the “Mean (tumor measurement, length x width)” value (B 16F10 melanoma cells [2]; Day 28, IP 100 ng) was 383.7 mm^2 and the “Mean (tumor measurement, length x width)” value (B 16F10 melanoma cells [2]; Day 28, SC 100 ng) was 352.9 mm^2. The “inhibition of tumor growth” value (B 16F10 melanoma cells [2]; ID delivery, 100 ng, only route with effect (FIG. 1)) was “significant effects on inhibiting the tumor growth”, the “effectiveness relative to other conditions” value (B16F10 melanoma cells; 100 ng ID contralateral side) was “not as effective as those dosed near the tumor, but were better than the IP condition” and the tumor size (B16F10 melanoma cells; 100 ng ID contralateral side (IDcs), Day 14) was 75 mm^2. The “overall tumor growth reduction” value (B16F10 melanoma cells; 100 ng ID near the tumor injection site) was “greatest reduction in overall tumor growth”, the tumor size (B16F10 melanoma cells; 100 ng ID tumor side (IDts), Day 14) was 75 mm^2 and the tumor size increase (B16F10 melanoma cells; 100 ng IDcs, Day 14 to Day 18) was 91%. The tumor size (B16F10 melanoma cells; 100 ng IDcs, Day 18) was 43 mm^2, the tumor size increase (B16F10 melanoma cells; 100 ng IDcs, Day 18 to Day 21) was 29% and the tumor size increase (B16F10 melanoma cells; 100 ng IDts, Day 14 to Day 18) was 68%. For the same molecule, the tumor size (B16F10 melanoma cells; 100 ng IDts, Day 18) was 126 mm^2, the tumor size increase (B16F10 melanoma cells; 100 ng IDts, Day 18 to Day 21) was 14% and the tumor size (B16F10 melanoma cells; 100 ng IDts, Day 21) was 142 mm^2. The “final tumor size for IDts smaller than IDcs” value (B16F10 melanoma cells; 100 ng, Day 21) was 23%.
